Target: the molecule itself
Test: crystal structure; ZAN/U:GSH crystals, hanging drops at 22°C, 30% PEG 6000, 0.1 M Bis-Tris pH 6.5, 1 mM β-ME; soaked with DDE (not seen in the maps); 2.3 Å; two biological dimers in the asymmetric unit

B1: GSTE2 ZAN/U variant (epsilon-class glutathione-S-transferase GSTE2 of Anopheles gambiae, allele ZAN/U 1C) (enzyme, UniProt Q7PVS6 1-221, looked up)
chain: MSNLVLYTLHLSPPCRAVELTAKALGLELEQKTINLLTGDHLKPEFVKLNPQHTIPVLDDNGTIITESHAIMIYLVTKYGKDDSLYPKDPVKQARVNSALHFESGVLFARMRFTFERILFFGKSDIPEDRVEYVQKSYELLEDTLVDDFVAGPTMTIADFSCISTISSIMGVVPLEQSKHPRIYAWIDRLKQLPYYEEANGGGGTDLGKFVLAKKEENAKA
notes: Cloned from full-length cDNA; the model runs to Ala221; One of GenBank JX840597-JX840599; Crystallised as the complex with glutathione (GSH, 1:1.2 molar ratio); biological dimer; Natural allelic variant; I114T is written against the Kisumu (ancestral) allele; also called Gste2-114T; ZAN/U:GSH; not shown: His6, N-terminal, cleaved; SUMO, N-terminal, cleaved
For B1, the “stoichiometry N” value was 2.

From article PMC3968025, “Metabolic and Target-Site Mechanisms Combine to Confer Strong DDT Resistance in Anopheles gambiae” (PLoS ONE, 2014)
